The results in this text go back to patent US20040091487A1 (ALBERT EINSTEIN COLLEGE OF MEDICINE OF YESHIVA UNIVERSITY, published 2004).

First the molecules themselves.
B1: GAL4AC (other, UniProt P04386 768-881, looked up)
chain: ANFNQSGNIADSSLSFTFTNSSNGPNLITTQTNSQALSQPIASSNVHDNFMNNEITASKIDDGNNSKPLSPGWTDQTAYNAFGITTGMFNTTTMDDVYNYLFDDEDTPPNPKKE
notes: Negative control of the two-hybrid assay; also called GAL4AC alone

In experiment [1] the target is T1, LexADB-IN-1 (HIV-1, UniProt P0A7C2 1-87; P04585 1148-1435).
T1 construct: Yeast two-hybrid fusion
As to the kind of experiment: yeast two-hybrid, β-Gal staining.
Text: (§1) To determine the specificity of interaction of INI1 with retroviral INs, we first examined the interaction of various INs with INI1/hSNF5 using the yeast two-hybrid system. […] The transformants were stained with X-GAL to detect positive interactions between the various retroviral INs and INI1/hSNF5.

The target of the next experiment is T2, LexADB-INI1/hSNF5 (human, UniProt P0A7C2 1-87 (Escherichia coli entry), limits assumed).
T2 construct: also called pSH2-INI1
Briefly: yeast two-hybrid, β-Gal staining.

The target in experiment [2] is T1, LexADB-IN-1. Briefly: reverse yeast two-hybrid, X-Gal staining.
In another experiment the target is T3, GAL4AC-IN-1 (HIV-1, UniProt P04585 1148-1435).
T3 construct: domain: integrase
Briefly: yeast two-hybrid, β-Gal staining.

For the experiment “GAL4AC”, the target named is B1. As to the kind of experiment: yeast two-hybrid, β-Gal staining.
Text: as §1
The target in a further experiment is T4, GAL4AC-IN-2 (HIV-2, UniProt P04584 1172-1464).
T4 construct: domain: integrase
T4 sequence: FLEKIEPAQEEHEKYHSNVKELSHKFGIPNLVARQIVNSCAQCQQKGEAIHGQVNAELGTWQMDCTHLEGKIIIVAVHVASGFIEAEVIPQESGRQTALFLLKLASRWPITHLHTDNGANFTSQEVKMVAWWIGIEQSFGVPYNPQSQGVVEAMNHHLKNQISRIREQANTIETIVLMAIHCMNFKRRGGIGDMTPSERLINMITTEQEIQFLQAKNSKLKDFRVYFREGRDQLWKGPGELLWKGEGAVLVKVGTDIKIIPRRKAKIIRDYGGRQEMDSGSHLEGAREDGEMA
As to the kind of experiment: yeast two-hybrid, β-Gal staining.

Text for GAL4AC-IN-1: as §1
Text for GAL4AC-IN-2: as §1
Text for LexADB-INI1/hSNF5: as §1

On to B1, for which the binding result with LexADB-IN-1 [1] and in the experiment with LexADB-INI1/hSNF5 was “no binding” in each case.

B2: GAL4-AC fusion of S6 mutant E3 (other)
chain: PEVLVPIRLDMEIDGQKLRDAFTWNMNEKLMTPEMFSEILCGDLDLNPLTFVPAIASAIRQQIESYPTDSILEDQSDQRVIIKLNIHVGNISLVDQFEWDMSEKENSPEKFA
notes: also called pGADNot-E3
For the molecule B2, the binding result in the experiment with LexADB-IN-1 [2] is on record as “no binding”.

B3: GAL4-AC fusion of S6 mutant E4 (other)
chain: PEVLVPIRLDMEIDGQKLRDAFTWNMNEKLMAPEMFSEILCDDLDLNPLTFVPAIASAIRQQIESYPTDSILEDQSDQRVIIKLNIHVGNISLVDQFEWDMSEKENSPEKFA
On to B3, for which, in the experiment with LexADB-IN-1 [2], the binding result was “no binding”.

B4: GAL4-AC fusion of S6 mutant E10 (other)
chain: PEVLVPIRLDMEIDGQKLRDAFTWNMNEKLMTPEMFSEILCDDLGLNPLTFVPAIASAIRQQIESYPTDSILEDQSDQRVIIKLNIHVGNISLVDQFEWDMSEKENSPEKFA
For B4, the binding result with LexADB-IN-1 [2] is recorded as “no binding”.

B5: LexADB (other, UniProt P0A7C2 1-87, looked up)
chain: MKALTARQQEVFDLIRDHISQTGMPPTRAEIAQRLGFRSPNAAEEHLKALARKGVIEIVSGASRGIRLLQEEEEGLPLVGRVAAGEP
notes: Negative control of the two-hybrid assay; also called LexADB alone
As for B5, the binding result with GAL4AC-IN-1, with GAL4AC and with GAL4AC-IN-2 was “no binding” each time.
